This series addresses T1, MutS (Salmonella typhimurium) (UniProt P0A1Y0).
T1 sequence: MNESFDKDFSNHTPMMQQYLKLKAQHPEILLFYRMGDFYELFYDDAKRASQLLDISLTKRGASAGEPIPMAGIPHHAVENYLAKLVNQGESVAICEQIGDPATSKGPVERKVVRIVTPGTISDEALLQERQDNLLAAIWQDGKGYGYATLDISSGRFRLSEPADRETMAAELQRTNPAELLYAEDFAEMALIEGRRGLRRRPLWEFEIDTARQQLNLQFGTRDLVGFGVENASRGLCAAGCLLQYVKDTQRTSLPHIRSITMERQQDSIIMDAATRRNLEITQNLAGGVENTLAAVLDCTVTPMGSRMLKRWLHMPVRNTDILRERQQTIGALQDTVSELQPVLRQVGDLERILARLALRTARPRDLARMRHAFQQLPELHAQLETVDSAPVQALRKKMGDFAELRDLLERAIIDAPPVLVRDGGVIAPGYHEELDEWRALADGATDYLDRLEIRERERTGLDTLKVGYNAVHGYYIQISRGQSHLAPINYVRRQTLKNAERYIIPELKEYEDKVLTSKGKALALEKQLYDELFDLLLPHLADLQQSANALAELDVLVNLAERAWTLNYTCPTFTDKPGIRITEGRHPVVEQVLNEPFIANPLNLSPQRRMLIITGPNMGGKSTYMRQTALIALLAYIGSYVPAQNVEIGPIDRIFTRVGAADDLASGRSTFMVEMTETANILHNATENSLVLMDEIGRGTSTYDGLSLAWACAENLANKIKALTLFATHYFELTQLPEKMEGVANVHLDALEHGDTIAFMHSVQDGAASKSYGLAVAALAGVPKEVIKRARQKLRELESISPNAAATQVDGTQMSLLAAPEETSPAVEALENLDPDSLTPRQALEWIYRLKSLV
Kind of series: pulldown. The conditions noted are these: on ice.

Where the note is “immunoprecipitation with anti-MutS, 1 ug lambda competitor DNA”, “1 KB AvaII-BglII M13mp8 C-A heteroduplex” showed a binding signal (fold over homoduplex) of 9.6.
With 1 KB AvaII-BglII M13mp8 homoduplex, where the note is “homoduplex control precipitated 9.6 fold less, competitor DNA”, the binding signal (fold (reference)) came to 1.
